Test results from the DeepSol protein solubility set.

Experiment: soluble on expression in E. coli; label from the status in PepcDB or PDB records

Row | Sequence | soluble on expression in E. coli
1 | MGSDKIHHHHHHMIIPHRKPCIESQIKTSGNLDELKMIINDLLYSEKEIQILPSGNSAIHIASEIVSKLNPNSKTLIPDMGGWKGFETYSKLSGLSIEKLKTNLGVVNLEILEEKIKECSAKSLFLTSLAGYLAEQPLKEIAKICSENDCLFIEDVSGKIGGDCGYGDMVVCSTGSPKIINCEYGGFLGFSKKINENLKDKHLKEDIKNLLKTYKMPDIYGKMIEETLISKKSYELCIKFSNIVKENMENAYFKDSQGVSVFLSYENPKEIAKNIDKSVKLNNGKSILTMCPLYERILRKGVVLEIKKMDIHKISENEIYEILNFF | not soluble
2 | MDILILFYNTMWGFPLEFRKEDLPGGCVITTDRNLIAKADAVVFHLPDLPSVMEDEIDKREGQLWVGWSLECEENYSWTKDPEFRESFDLWMGYHQEDDIVYPYYGPDYGKMLVTARREKPYKKKACMFISSDMNRSHRQEYLKELMQYTDIDSYGKLYRNCELPVEDRGRDTLLSVIGDYQFVISFENAIGKDYVTEKFFNPLLAGTVPVYLGAPNIREFAPGENCFLDICTFDSPEGVAAFMNQCYDDEALYERFYAWRKRPLLLSFTKKLEQVRSNPLIRLCQKIHELKLGGILEHHHHHH | not soluble
3 | MGSDKIHHHHHHMALPEFKIAQLRHFVWVAELKGFHTAAEKACRTQPAISLSIRDLENKLSTILFEKRNAKTSNTELTPFGQYFLPKAKELIAHHDNVAQDMALMSEHKTGHLRLASVPSIACRMLPELLSKFIADVPELHISFYDDNSEAVLRKVEKQQVDIGIASLPHGHEHADITFTPIWEDQLGVVCREDHPFAEMTELHWKELRKQRLIRNGTSRLLEDTEAEPLLSDSQFLISNMLSLIAMLEEGLGITTLPWFAFPKNNSKLRFIPLTTPKIVRHIGIVQLKNKSLSPAAEALANFILKNTNQKKTSDLNPE | not soluble
4 | EITHRTKTRPVKVGPLTIGGNNEVVIQSMTTTKTHDVEATVAEINRLAEAGCQIVRVACPDERAANAIADIKKRISIPLVVDIHFDYKLALKAIEGGADKIRINPGNIGRREKVEAVVKAAKDKGIPI | not soluble
5 | MGSDKIHHHHHHMELPCSLLCFVETLAVLRRSKSLSNEIIATGSRLVAGPSGAQDRAMTATRYDKNAKNVLGQELVPCSLDPVTGFYRNGCCETGPHDLGLHTVCAVMTRDFLAFSKAQGNDLSTPRPDLAFPGLKPGDRWCLCAGRWKEALDAGMAPQVVLEATHEEMLAVVPLGVLKDHAAA | not soluble
6 | MNTLPDTHVREASGCPSPITIWQTLLTRLLDQHYGLTLNDTPFADERVIEQHIEAGISLCDAVNFLVEKYALVRTDQPGFSAGAPSQLINSIDILRARRATGLMTRDNYRTVNNITRGKHPEAKQ | not soluble
7 | MSNTESTPVFDVCLSEKSFPHAQDKAILVHVFLSQTKDIDNLTEFQTLAESAGVELLSTLTTSRNAPHIKYFVGQGKAEEIAQAVENLGATVVLINHQLSPAQTRNLQNLCGCRIVDRSGLILDIFAQRARSHEGKLQVELAQLRHLSTRLVRRLGNQDQQKGGSVGLRGPGETQLETDRRLIKVRIQQLQNQLDKVNKKRHQNRKTRQKADIPTVSLVGYTNAGKSTLFNAITQAGVYAADQLFATLDPTLRRMQIQDVGTTILADTVGFIRFLPHDLVSAFKSTLQETTEANLLLHVVDIADERKNDNITAVNQVLDEIGALTLPSLLIYNKVDKITDITPHIERNQEGKPIAVYLSAHTNQGIDLLYQAIRECLRNELVCQKILLPTTAGQIYAQIRNQNCIKQEHFNQFGDRLIDIEVNAVQWQKWLKQYPALIEYVAFAKWENELEHHHHHH | not soluble
8 | MAHHHHHHMSVVISTSLGSLLINLRFVDCPKASFNFLALCASSYYDGCRFHRLVPETFVLTGDPTGTGKGGESVFVHHQDIKQRYFEDEGMGNALHDRRGVVSMAHKGNKPDTNASQFFILFKPCPSLDSKHTAFGVVDFGWNDGESERTLKRVEELEADGSYNVLDVEARILSTTVLYNPFAEGHIKLNV | not soluble
9 | FHHYKILDTNILIDGRIYDLAKTGFLEGTLLVPNFVLYELQYIADSSDSVKRVRGRRGLDILNKLQNEHIMPIEMYEGDFEDIPEVDSKLIALAKQNGGVIVTNDYNLNKVIQFQNVQVLNINSLANALKPRVI | not soluble
10 | TSTDWKEAKSFLKGLSDKQREEHYFCKDFVRLKKIPTWKEMAKGVAVKVEEPRYKKDKQLNEKISLLRSDITKLEVDAIVNAANSSLLGGGGVDGCIHRAAGPLLTDECRTLQSCKTGKAKITGGYRLPAKYVIHTVGPIAYGEPSASQAAELRSCYLSSLDLLLEHRLRSVAFPCISTGVFGYPCEAAAEIVLATLREWLEQHKDKVDRLIICVFLEKDEDIYRSRLPHYFPVA | soluble
11 | ASIKENSYFAGGVKSLGFNQHGQDVSVGVMLPGEYTFGTQAPERMTVVKGALVVKRVGEADWTTYSSGESFDVEGNSSFELQVKDATAYLCEYL | soluble
12 | MKRLNCRRKGIRVRILAIDTSNQTLSIAVCENQKILGSYTATVKRNHSLTLMPAIDYLMSQLNLAPTAIDRFVVAEGPGSYTGLRLGVTTAKTLAYTLKKELVGISSLQTLAANCVGQTGLIVPLFDARRKNVYAGAYRFVNGVWQNELPDQHISLRELLEQLKNEPNLFFVGEDVEKFTEEIAQIIPHGEICDVPQWQIPNAAVLAALGSVAEPVENVHGFLPAYLKKVEAEENWLKTHTPNGESYVEKLLEHHHHHH | not soluble
13 | MGSDKIHHHHHHMSQIISVHSFRGGTGKSNMTANLATTLALQGKRIAIIDTDIQSPGIHVIFGLNEQKMNNCLNDYLWGKCAIEDAAYDVTHLLKGEGGSGKLYLIPSSINPGQITRILREGYDVARLNDGFYEIINALDLDYLLIDTHPGLNEETLLSIAISDILVVILRPDQQDFQGTAVTLEVARKLEVPKMMLVVNKVLSTFDFNALQQEVESTYKTPVAGIVPLSEDIIRLASSNIFCLLYTSHPFSQVVQKITAQIIREQAKVAVRGAF | not soluble
14 | MGSDKIHHHHHHAQSIAKGSTPDFSEARTLIKGALENPETKDDAKTWYVAGFIEDQQFSNERTKQVLGQQPDEPVMYEALGSILPYFEKAYELDQLPNEKGKVKPKFTKDIKGILGANHVYYINGGAYYFDQKDYNKAYDFFEQYLKISDMPMFKGEAVAERDSNFMTVQFYAAVAATQLGDSQKAIAALERAKNTDYRASEVYQYLCYEYEQAKDTVNLEKTLEEGLNKFPEEQYFLMSLINNYIYSNRNEKAIEYLNTAIAKDSNNPQLYDVMGRVYETGLKDYAKAEEYFKKALAINPDYIESLSNLGRVYYNQGVNKQGEANMINDAKQYQEELGKAKEFFKQALPYFEKAHQMKPEEREYMTALRGIYYNLNMGDKFDAIEAEMNK | not soluble
15 | GAMGSGGGGEHQHGEEMMAAVPAPDAEGAAGFDEFPIGEDRDVGPLHVGGVYFQPVEMHPAPGAQPSKEEADCHIEADIHANEAGKDLGYGVGDFVPYLRVVAFLQKHGSEKVQKVMFAPMNAGDGPHYGANVKFEEGLGTYKVRFEIAAPSHDEYSLHIDEQTGVSGRFWSEPLVAEWDDFEWKGPQW | soluble
16 | AAQTTAAVEDMSMGAEDAPVTIVEYASFTCPHCANFEKEVLTPLKRDYIDTGKVRFTFREVYFDRYGLWAAMVARCGGEMRYFGIADLIFEQQKEWVTNDPAQVATNLRKIGKTAGLDDAALDACMNDQAKAEAMVAAFQKNSQADDITATPSLIINGTKHSNMSYEELKKIIDAELAK | not soluble
17 | MGSDKIHHHHHHMILDPILDMFRGKAVTIPPLDGAFRPNTRLDDAPTFAELTEPDNLLADGGRLLATSGNAIYSLAAGAEPKVIETFPSPITAQALAPSGDLTVALESGKLLTSGKEVSLPADLSCITALAYAEDGTLWLANGSAEHAPSQWAADLMKKGASGSLWKRDATGGAFRKVAGALAFPYGLLPLGGDVLVSESWRHQLIRFDGATGNRSTVLTHLPGYPARLASAGDGGAWLALFAPRNRLIEFVLQETHYRQDMIDQVPPAYWIAPALASNRSFLEPLQCGGIRTMGIHKPWSPSRSYGLVVRLDARMQPQFSLHSRANGTRHGICSVVEKAGRLFIASKGGDCVLDAGGF | not soluble
18 | KSIELYENNIPNGKTDAILIKNQTLISALKNPKQTKSSQRSSQSTNTQNDAICYLAFNSKIRPDDKDIFLLDKFGEKFVTAIVNFEEKTEVKINTLQEKEAVVLPAPQKFKPTDPKSVALVQGPSLIGIHANANEDRSTIKFLNW | not soluble
19 | MSLSWDQVWIDVNVATMDPSISAPYGAITNAAIAVKDGKIAWLGPRSELPAFDVLSIPVYRGKGGWITPGLIDAHTHLVFAGNRANEFELRLKGATYEEIARAGGGIISTVNACREADEAELFDLGRQRLNALAKEGVTTVEIKSGYGLDTETELKILRVARELGQHHHVDVKTTFLGAHAVPPEFKDNSDGYVDLIINKMLPAVIAENLADAVDVFCENIAFNLEQTERVLSTAKAAGLQVKLHAEQLSNMGGSELAARLGAKSVDHIEYLDEAGVKALSESGTCAVLLPGAFYFLRETQKPPIDLLRQYGVPMVLASDFNPGSSPICSTLLMLNMGCTLFRLTPEEALAGLTLNAAKALGIEDNVGSLVVGKQADFCLWDIATPAQLAYSYGVNPCKDVVKNGKLIHQEGHHHHHH | soluble
20 | MSLGIRGLDLSDLFVSGASYKRLGSEEMMRSTFQKLDREIAAIFLGLSDGTISKAIEYSKVRTAFDHPLKDYSPIFDDLVSLKMEIDVLRFYLYGSGDEYSRALIKIKAKDLSLRATRVSLQTHGGYGYIHDFGIEKYYRDAMALSVYFGQDKYENMVLSDHIFGEAGGEGHHHHHH | not soluble
21 | MTRPNDEGDVSSLAYKYETIADSLRQDIKSGKYTPGELMPDQNKLAETFDTTRITIHKAIQLLIIEGMVYSKRGAGTFVRKDFGLTERRQETLVDKPLGTTQTNAGKKVTSKVLELQARLPTKREAEQLLIDEMDPVYVIRRTRYVDGKVWAYEHTIMPTSIVTLTKQVLEGSVYGYLEQHSGKKIAGSHRIISAARVTADDVAAMGATLNDPVLVINQISYMDDGQPFEVSESHFPYETSTVVADVQIH | not soluble
22 | MLNIDNIQSLIDNGEGYNVEFKVRVPSKVRELTEEICAFANADGGYLLIGVDDNGQVVDTNLENDKRSAIQGSISEISPTLHCELYSVNLGDKTVWVIDVPSSKDKPYIFSGSIYVREGANSQKLRTAEEIRSFFQECNKIYFDHIPCHWFNIYTDADAQMIKDFRTEAKLSPSTPRQTNILEHHHHHH | soluble
23 | MKELTNEELRGIQLEQLKYIDRICRENGIEYTLAGGSLIGAIRHGGYIPWDDDIDIELTRPHYDHLISVLMDQLPNEKYALLHYKVRETYLPFAKLYDTRTSFTSKIDNLNRGTGVFLDIFPMDILPDNEEERQVFKKEFLKKAIQLTASNPHGLDFASSSKKIYFWGKLVLWMPQHIRFYGKYRILAEKLDEFMQKYRNSDNQLISYLYTGYKKAIFPKEIWEEYEDVKFEGLTARKLKNHEEYLTRQYGDYMKLEHHHHHH | not soluble
24 | MRGSHHHHHHGSPYNVMIVDDAAMMRLYIASFIKTLPDFKVVAQAANGQEALDKLAAQPNVDLILLDIEMPVMDGMEFLRHAKLKTRAKICMLSSVAVSGSPHAARARELGADGVVAKPSGTVSHDLEEKTGGELARTMRTLMAA | soluble
25 | MEEDQEEPPSSSTSSESPEVVLKAPKAPTRRRKNSKKDRRQDMEVDDGEKESTAQYCKGFYDALRVMQTTNKYEFTGGAVSSPVLPVLQTAAFSPITPASASDMHTIVMSLLGNTPITSGPSIAPLSSPTLLPLVTSGDLDDLSMKILASSAIPGPPIISSSNSPDSSTTAVTTSQITAFQPLLNNFVSSTTASTSRPDKLNLTPPQQSAEIYAFNGVNSDDSDGGLDSRSASRCG | not soluble
26 | VDTHSEVLIFEVIPADDFLQQQLQITVQDRVWHVKRVRYRKQKPMALEETWMPLALFPDLTWQVMENSKYHFIEEVKKMVIDRSEQEIIPLMPTEEMSRLLNISQTKPILEKVSRGYLVDGRVFEYSRNAFNT | soluble
